Data taken from a protein production outcome set (Wang et al. 2014).

Experiment: label from the status in PepcDB records

| Sequence | protein production |
| --- | --- |
| MFEAARFGDEISHTSALGGFLIGAALGIALVATVAIATFTCGFGVALLAGLAAGIGGSLLTAAGEAIGSMFSSPSGTITTASPNVFINSRKAARVEKSIGACDKHPGPVQIAEGSTNVFINSVAAARKGDKLTCGATISGGSDNVIIGGGTYRYLPVDDEVPEWLRTTVDVLMAIAGAAGGIAQLIKAGTQAGMKAVMPCALKFTAGFVAGEVASRYVVEPVARKAIGGLVGNPVDLTTGRKLIPDEIDFSLPGLMPIEWSRFYASDLTVDSVLGRGWVLPWEQSLRRQGAFIYLTDNQGREVPFVTLQPGQRIYNPHEQVYLVCTEGGHYILQTLDNLFFYFGEVPDTNTEVPLQRIENVLGHFLHFTRTPDGTLTDISATGGTRVHLHYDNPLGRLTDIKRVVNNEAVETLTQYRYDEHGQLSAVINRNGDTVRSFSYADGLMVTHSNALGLGCHYRWQTLGDKPRVVEHWTSDGEHYHFRYDLDSRTSWATDVLGRELEVQYNADHRVVASRDYGGERYAIELDEHGNMVGLTLPDGNRLQFKYDEFSRLLEETDPLGRKTQYEYHHLTTLVTQVSYPDGSTWRARFDDKGNLLAEFDALGQMTEYLNSDDGLPHTIIDATYKSKYLWWNTLAQVERYQDCSGKSTYYRYDERQHLVAVTDALNQTTTLARKPDGEVLRISHPDGTTESFTYNVYGQVLSHTDGKGQTTRLMRTARGLPSSRQDAKGQRVRYEYDKAMRLTALVNENNATYSFAYDASDRLSEEVRVDNLTRRFSYDVGGHLTRLDEIGYGENAERPERHTLFERDAIGRLIAKLNSDAQQRFTYDDGDRLLSIERQPTGIGKQLGITEEKLEYAYDLLGRLTKEISPDGTLGYEYDPLSNLTTLTLPDGRKVNHLYYGSGHLHQLNLDGQVISDMERDDLHREVYRTQGKLTSCFGYDAMGRKAWQFASTLPADKLSQVHNTGINTSLLVEHAYNPIHRRYQYDPAGELVRTLDKLRGEIKYEYEANGQLRSRDTGSLIGSEEFRYDPAANRLDFNARQFDKVKDNRIKQWRDQEYRYDPWGNLIEKRSGHSKLQHFSYDCENRLVRAETLVNGKLESQGEYRYDSLGRRIAKQAEINGEVEQKRFLWQGLRMLREETPGQSILYLYEPGSYAPLARVDQVEGEGQKVYYFHTDQIGTPLELTDSEGEIVWQATYRSWGTIETLSIKEVDQNLRFQGQYFDAETGLHYNTFRYYYSEVGRYVTQDPIGLDGGLNLYRYGQNPAGWIDPWGWECWSTARKNYWKAEAKAPTRAYSPTNLVRMAEGKAPKMTVEVISRKTDKISIREYALELHHNDIPQRVGGAGVHDSSNLLALTPWEHEAVDQFRHVGSDLIRVIKGVDVW | failed |
| MFENFSPSTMLAIKKYAYWLWLLLALSMPFNYWMAQDSAHPAFWAFSLVIAVFGIGPLLDMLFGRDPANPDEETQTPQLLGQGYYVLLTLATVPVLIGTLVWAAGVFVAFQEWGWLGRLGWILSMGTVMGAVGIVVAHELIHKDSALEQAAGGILLAAVCYAGFKVEHVRGHHVHVSTPEDASSARFGQSVYQFLPHAYKYNFLNAWRLEAVRLRKKGLPVFGWQNELIWWYLLSLALLVGFGWAFGWLGMVFFLGQAFVAVTLLEIINYVEHYGLHRRKGEDGRYERTNHTHSWNSNFVFTNLVLFHLQRHSDHHAFAKRPYQVLRHYDDSPQMPSGYAGMVVLALIPPLWRAVMDPKVRAYYAGEEFQLTAEQSERPAAS | failed |
| MFERFTDRARRVIVLAQEEARMLNHNYIGTEHILLGLIHEGEGVAAKALESMGISLDAVRQEVEEIIGQGSQPTTGHIPFTPRAKKVLELSLREGLQMGHKYIGTEFLLLGLIREGEGVAAQVLVKLGADLPRVRQQVIQLLS | not failed |
| MFEVTVSKRLLKSGIIVSAMTLISRVLGLVRDVVVANLMGAGASADVFFFANRIPNFLRRLFAEGAFSQAFVPVLTEYHASGDINKTRDLIARASGTLGVLVTIVTLIGVLGSGAVTALFGAGWFLDWLNGGPAAGKFELASLLLKITFPYLWFITFVALSGAILNTLGKFAVSSFTPVFLNVMMILCAWYLSPNLEQPEVGLAIGVFLGGLVQFLFQLPFLIKAGVLVRPKWGWKDPGVVKIRTLMIPALFGVSVSQINLLFDSFVASFLQTGSISWLYYSDRLLEFPLGLFGIAIATVILPALSRKHVDAHSDGFAHTMDWGIRMVTFLGIPAMLGLMVLAKPMLMVLFMRGEFTPSDVEQASYSLLAYSSGLLSFMLIKVLAPGYYSRQDTKTPVRYGIIAMVSNIVLNAIFAWFYGYVGLAVATSMSAFLNMALLYRGLHLQGVYHLTRKTVWFVARLAMAGAVMTGALLWQLDTMATWLSWGISQRALTLTGLIGLGVASYLAILLLLGVRLKDLKAATE | failed |
| MFEYRCSSIDWKPSPVVALATSADGSQVAAAREDGSLELWLVSPGASSWHCQLIIHGDPKSRISHLAWFGTGSKGSSSARLFSSSIDGSISEWDLFDLKQKVVLDSIGFSIWQIALAPISIEAESKEAKLIQNGYLSEKSDDEEESGVEDDSELDELDEKVEALDRHLAAACDDGCVRIYYISESDKLTYYRSLPRVTGRALSVTWSADAQRIFSGSSDGLIRCWDANLCHEVYRITVGLGGLGNGSELCIWSLLSLRYGVLVSGDSTGSVQFWDSQHGTLLQAHSNHKGDVNALAASPSHNRVFSAGADGQVILYKLSGGTSRSQDFKPSSAQKWDYIGCVRAHTHDIRALTVAVPISWEGSIPDRNAKVTSPKQRRKEPAGFSYHKWAHLGVPMLISAGDDAKLYAYSVQEFTKFPPHDICPAPQRVPMQMVHNTVFNQTSLLLVQDSCSLDILRIHISNDSSGRVSTKPLVRVKSKDARKIICSAISNTGSLFAYSDQVRPSLFELKKNKIGKNPWSANRKRLPNLPFAHSMVFSCDCSRLIIAGHDRRIYIVDVGSMELLHSFTPRQEGQEGESPPHEPPITKLYTSSNDDWLAAINCFGDIYVFNLETQRQHWFISRLDGASVAAAGFHPRDNNVIVISTSSNQVFALDVEARELSKWSLLQTFCLPKSYQNFPGEVVGLSFSPSPCSSSVIIYSSRAKCLIEFGKPAEQDEDTDTPCNLSEKLEGKLASISMKLGNGAQKRRLEEYQKESKSNKRKKFEMVTSKHPVLYLRHLSKSAILVIEKPWMEVIKNLDTQPVHRHIFGT | failed |
| MFFNKKNNQDELKKLAATEAAKSITTEITLGVGTGSTVGFLIEELVNYRDKIKTVVSSSEDSTRKLKALGFDVVDLNYAGEIDLYIDGADECNNHKELIKGGGAALTREKICVAAAKKFICIIDESKKVNTLGNFPLPIEVIPMARSYIARQIVKLGGQPVYREQTITDNGNVILDVYNLKIDNPLKLETELNQITGVVTNGIFALKPADTVIMATKDSNIVVL | not failed |
| MFGLSKRAITILFGLLALAFALGAILLFTPQAGQQTRGKPVLWVNGKALYELDLLRLQGNDPLYAASPEGLLKTLVDTYFLEQVILTEALKQDAARVRVSSAEVRQEVNRIREQFGLKDKAAYEQFLNQVGYTDAQLRAEVKTQLQIQKRLEQIRSGAKPTEEEVRFYYEVFKENYRTEPRVKARQIVVDDKALAEELAAKAKAGEDFAALARQHSKVGAEQGGALGAGPGEAEPKPVTQVVFPTEVGEAVFALKGPGVVGPIAAGGRYYIVKVEEYLPSTLPAFEEVKDRVAQDAERAKGNGVLEAYLEELRKKAQVRFAEDNPYAYQNPPVAKVNEKEILLSEVLQPVFSNQQTVALVQQGLGELAVQFFLPQTLENLIDRELLVEAARKSGKPFIGSKAEIAEAYLRYETRDVTASEEEARAFYSENPALFTVPASAKVIGVNFKEEAQAKAFRAAALRGGDLEALAKAQEGTVTDYGTVNPNQLPAVLDRLVFKITETFPQGPLGEVSEVIKMEDGSYTVLLISDRKAEELKGFAQVAEEARQGAVNRKRSEKAQALIQALREEAKIENRLAEVLQALTPKTPSQDQPNSQEQPQPEEAPANNP | failed |
| MFGPFKPAPHIAELPAEKIDSTYKRLRWQVFAGIFFGYAAYYFVRANFDLAQPGLIQAGLYSKAELGVIGSAAGLAYGLSKFVMAGMSDRSNPRVFLPFGLLLSGLCMTLMGLFPWATSGIAIMWVMIFLNGWFQGMGWPPCGRTMVHWWSKSERGTIVSIWNTAHNIGGMVPGAMVLLASAIFFSTHGIEAQAKDVWQQSLYFPGIAAMIFAIPVYFVMRDTPQSCGLPSIEKWRNDYPDDYNEKTYENDLTAKEIFVTYVLKNKLLWYIAIANVFVYLIRYGVLKWSPVYLSEVKHFNIKGTAWAYTIYELAAVPGTLLCGWVSDKVFKGKRGLTGFIFMILTTAAVVAYWMNPATPEAELANYSAWYENPYQLTDFVLMTLIGFLIYGPVMLIGLHALELAPKKAAGTAAGFTGLFGYLGGTVSASAVIGWAAQHYGWDGGFYVMIGGGVLAVLLLLIVMVEEGKHKAKLGDTYGTK | failed |
